According to the supplement of paper PMC12042874:
± gives the uncertainty stated by the source.

Test: amyloid nucleation score (Sup35N fusion, yeast selection) (log enrichment); library NNK2; higher = more nucleation; inactive = no reads after selection
Outline: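 The nucleation score equals the log enrichment of output over input reads from DiMSum, centred on the mode score of non-aggregating sequences. It was computed only for sequences with 100 or more input reads. The reads came from Illumina sequencing of plasmid inserts from psi-negative yeast expressing Sup35N fused to peptides of 20 random codons, induced with 100 μM copper sulfate for 24 hours and grown 7 days at 30°C without adenine and uracil.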

| Substance | amyloid nucleation score |
| --- | --- |
| NSVFRTDCGKRGMVVPGRAH | 1.04 ± 0.35 |
| NSVWANARRLTVCGAERGGT | 1.24 ± 0.17 |
| NTAFADVDAF | -0.645 ± 0.55 |
| NTALSGDCVRCPSAYEWVKV | 3.25 ± 0.11 |
| NTFDVVMT | 0.411 ± 0.51 |
| NTLNVWACVGLLLQ | 6.48 ± 0.075 |
| NTRASSKGIDMGYCQYH | 0.066 ± 0.49 |
| NTWDMLYGIWFSSLLQALLN | inactive |
| NTWEWLLPEMSNLLSWFSEW | 0.014 ± 0.27 |
| NVDQEMDYDYERIGFLPIGT | -0.204 ± 0.33 |
| NVDRFKVINLS | inactive |
| NVFVLFVHRVVGQELAELLG | 4.58 ± 0.065 |
| NVHYLGLVCRCALVFGTNML | inactive |
| NVIGENLGGLLNIFDTNVSF | inactive |
| NVIVFRMGCRILNWGAQYGR | 6.44 ± 0.082 |
| NVKNKKSVSLPYSKLMRGRE | -0.17 ± 0.65 |
| NVLNGISKLMRHFALKYASM | 0.528 ± 0.4 |
| NVLWIDLSRVKVVDGNRSPE | 6.342 ± 0.061 |
| NVNGLLSTN | -0.172 ± 0.76 |
| NVRFY | inactive |
| NVSIMFRFFVYLC | 4.16 ± 0.066 |
| NVSVNAEVN | -0.955 ± 0.54 |
| NVTVAWFVNLSPWF | 7.288 ± 0.045 |
| NVVSLILVVLRASCTYLYNG | inactive |

| Substance | amyloid nucleation score |
| --- | --- |
| NVVTG | -0.11 ± 0.42 |
| NVYLTQSWSFHNLHRFYYST | 2.57 ± 0.083 |
| NWCYTTSGHHRVTFGLQRLP | 4.8 ± 0.052 |
| NWGSRNFCW | -1.26 ± 1.1 |
| NWLLN | -0.492 ± 0.76 |
| NWPGCVHNTVISDLGRVHCM | -0.853 ± 0.56 |
| NYFLY | 7.28 ± 0.086 |
| NYHPFLVF | -0.909 ± 0.54 |
| NYIRYLRVYYIVGDELRPGN | 8.026 ± 0.048 |
| NYLASGQIIWLGYPSRSLSL | inactive |
| NYWGVARKFEFSDECLFLDG | 0.596 ± 0.54 |
| NYYGSVTRHFLSFLF | inactive |
| PADSTMGK | -0.856 ± 0.29 |
| PALPTVNLNS | -0.475 ± 0.42 |
| PARLTNCGDPSY | -0.997 ± 0.3 |
| PAWAHVSLRLMLFYWGYLFY | inactive |
| PCGSCPRLQQIVSRDGDDAG | 2.71 ± 0.21 |
| PCVSMSVYILQLGPLGAWSR | 7.454 ± 0.054 |
| PCYGYQR | -0.024 ± 0.65 |
| PDNLCMKPFLIAGYYVPTTA | -1.55 ± 0.61 |
| PDSRPIVRRSANCIWSNSWF | 1.38 ± 0.1 |
| PDSYGNFHHSSYNHDHNLVH | inactive |
| PDVMLCIFYIDFMQGFFDLY | 5.08 ± 0.07 |
| PECVLVSFLRRAFELFAMCN | inactive |

| Substance | amyloid nucleation score |
| --- | --- |
| PEHYSGATRLVH | 0.42 ± 0.47 |
| PESYVGRSLSPTVLVMWKSD | 0.102 ± 1.1 |
| PFDTTCLYRYYSNFYPS | 1.73 ± 0.19 |
| PFGGSFVSAYSTKRLCHGSH | -1.2 ± 0.48 |
| PFMCRLIYSELNDYIIELDE | -0.081 ± 0.5 |
| PFNQDMLTIQIGTSIISRSS | -0.172 ± 1.1 |
| PFVGSSGTWP | 1.5 ± 0.12 |
| PGEGMSQEERLMLCRCVWVT | 0.874 ± 0.52 |
| PGIVRGPYYGNMVIFLLKMF | 2.89 ± 0.19 |
| PGSRRL | 0.011 ± 0.41 |
| PHAHRNANLVWHQGKAPKGG | 1.12 ± 0.53 |
| PHHMIDAGASPSLN | -1.52 ± 0.62 |
| PHLFRPGTADVLYHYMTMRK | 0.628 ± 0.37 |
| PICESWHFSLIVLMLFLNWE | inactive |
| PIDFVLCSNNSSSWPVHKQN | 2.36 ± 0.11 |
| PIGLGVCLVICLKNEVSRCW | 3.37 ± 0.063 |
| PIKVDEVCGCRRRWFGDWDS | -0.146 ± 1 |
| PINVRNYKRVCGGMVV | inactive |
| PISLRGLYCVKDLMDKPM | 0.113 ± 0.61 |
| PISNLHILGFHHLTQHDRTV | 1.05 ± 0.3 |
| PITVYWCCDNS | 3.84 ± 0.087 |
| PKFLSFADSAFLICCRAIVF | 6 ± 0.08 |
| PKIKHMMAWVMFVAFKVCSC | -0.063 ± 0.29 |
| PKKSVGKLNIILEVLPSTAV | -0.666 ± 0.53 |

| Substance | amyloid nucleation score |
| --- | --- |
| PLCHLLYRSLMFFTLSEVSC | 0.042 ± 0.8 |
| PLDLYSVSIISLFEYIGVVR | -0.948 ± 1 |
| PLDTYLWAYLLPWWSLCTSI | inactive |
| PLMRGECGALLRLMFNTVS | inactive |
| PLNGIRFWSDVNLSRDGSSM | -0.025 ± 1.1 |
| PLSLYNFIFYNAEVPYVVVT | 1.84 ± 0.1 |
| PLYLYA | 4.28 ± 0.078 |
| PMFCFCPLCLWHKDCISINS | 8.227 ± 0.078 |
| PMSYLVWVSDFYLLRGGS | 0.019 ± 1.1 |
| PMVDRMMDASRWLPLDY | 0.109 ± 0.45 |
| PMVYRYKGRHIN | -1.27 ± 0.62 |
| PMWRVFAFYRWVALMSLTRI | inactive |
| PNDLLHLSRLIQDMWMINFN | inactive |
| PNFRVVFCLRSV | 9.978 ± 0.024 |
| PNPLSMLRLYRNKASVFSIK | 0.745 ± 0.41 |
| PPLLSISYKRRRVMFHFHVF | inactive |
| PPVVVSTSIWSRLCSYV | 0.151 ± 0.35 |
| PPYALDVTFVMRPKLSSR | 1.21 ± 0.23 |
| PRHSSSPALILWNYPNLTGI | -0.708 ± 0.37 |
| PRLGWHVLLVQIAVG | 2.94 ± 0.085 |
| PRMGFNDPARLGG | -1.34 ± 0.76 |
| PRRMNRGYQNDYFISTVFSV | -0.711 ± 0.64 |
| PRRNWMLVCTIIFVWNEKEY | 0.034 ± 1.1 |
| PRRYLTIPLSFFLHNSIIGI | inactive |

| Substance | amyloid nucleation score |
| --- | --- |
| PSDSECISCSCLDRWYRVFE | 2.94 ± 0.12 |
| PSLFTVFNVRLFQE | 4.12 ± 0.072 |
| PSVGYSITWGNILLYRIGFR | -1.19 ± 1 |
| PSVRTYTV | 4.67 ± 0.054 |
| PSVVVSNTYIGSPGYKRIWF | 7.844 ± 0.071 |
| PSWAELRVAYLLCGSGQPG | 1.43 ± 0.19 |
| PSYRCK | inactive |
| PTCMLCA | 0.868 ± 0.44 |
| PTCSNHCFFYLNHTN | 3.66 ± 0.12 |
| PTLTSIELSSTPRIRFWDSA | 0.122 ± 0.26 |
| PTPYKGRLLFPHHSGLYLIG | -1.23 ± 1.1 |
| PTRFSLDHWFPSVHYYPRLY | -1.05 ± 1.1 |
| PTSDMWSCNNL | 0.961 ± 0.81 |
| PVDVIHSRFVTGHFD | -0.853 ± 0.78 |
| PVFAFQYLSLCKWDLF | -0.976 ± 1 |
| PVKIGMFPVGRWQFKDQFGF | -0.704 ± 0.44 |
| PVLVGESHSIGL | 0.863 ± 0.24 |
| PVNWGQGITTKALWYMTLRF | -0.417 ± 1.1 |
| PVSALAVFRCLMYSCFCGDL | 6.172 ± 0.035 |
| PVYMFKYLVTLIWPHSKATF | 0.102 ± 0.34 |
| PWIAGCNMRTNWFNILNCPV | -0.583 ± 0.38 |
| PYTSSLLLQDRVLARGAYCR | 1.25 ± 0.36 |
| PYVHVYLWQSLKALVYLTCY | inactive |
| PYVTFITLCSAFKYVYKCWY | 5.448 ± 0.047 |

| Substance | amyloid nucleation score |
| --- | --- |
| PYYCMSYLAPWCPDELRAS | inactive |
| QAFVNFNIIYDV | 5.959 ± 0.053 |
| QALQFIVSQRL | 3.59 ± 0.11 |
| QCDVSRGAFEGFPYVYMEMW | -1.4 ± 0.62 |
| QCGRKFFDNRGGGLITPHPV | 0.107 ± 0.42 |
| QCQRLSWRCMWCGMSLYQYD | 3.98 ± 0.048 |
| QCTHPGLVVIYRSLAKDYLS | -0.285 ± 0.48 |
| QCVTSCCSSHEWHSTRQMIF | -0.502 ± 0.46 |
| QDMLWVPCNSGYRTQ | 0.627 ± 0.47 |
| QELYSDLPRPSGSPLQLWAK | -0.246 ± 0.76 |
| QFIEMEKIDVVFQEYIGEEG | -0.265 ± 0.41 |
| QFLTLCSKSNVRTCYSHSCN | 2.75 ± 0.19 |
| QFRTICKLWA | -0.099 ± 0.42 |
| QFSLAVSTLSL | 1.48 ± 0.27 |
| QGDWVEGV | 0.144 ± 0.79 |
| QGFVPHRSIWHTSNLSDWFM | inactive |
| QGGFMIFDRITGGLRVMNGL | 0.263 ± 0.23 |
| QGILGSFIGKRCGFTRLKTL | inactive |
| QHRFFQYYRS | -1.5 ± 0.64 |
| QHVFKVVSVALIMRCYDCGI | 1.64 ± 0.11 |
| QHYRSYTSILVCSYFYFDAQ | 3.12 ± 0.12 |
| QICNARFLLLLRTQALEQCA | 0.499 ± 0.56 |
| QIFKDSWSNIFRVYSCAVGM | 4.33 ± 0.062 |
| QIKRQGHLESPSRQR | 0.128 ± 0.37 |

| Substance | amyloid nucleation score |
| --- | --- |
| QIPCCWGPYVWSRAMGCSLE | 1.78 ± 0.15 |
| QIPNILVGNDMICVKKVLNW | 2.97 ± 0.051 |
| QKDLVSRGQYEVIVDSGTLG | 4.446 ± 0.035 |
| QKEENSWPGLIRCNLGVREG | 0.092 ± 0.22 |
| QKHAYAWLTPF | 1.54 ± 0.21 |
| QKNLEGLPEVEGNRRRCVVR | 0.033 ± 0.52 |
| QKRPVDIVPDHVWLWTR | 0.114 ± 0.55 |
| QKYLYQGCHLI | -1.24 ± 0.32 |
| QLDGWELATHRWCVILYVGC | -0.471 ± 0.48 |
| QLFHAWTTWPSGDHNIAWRY | 3.3 ± 0.14 |
| QLFRCGRWGLLFSAAFFYLV | 0.264 ± 0.8 |
| QLGRYLCHTIFKHRLYICTW | 0.113 ± 1.1 |
| QLHLTEVLFQS | 0.154 ± 0.22 |
| QLIMS | inactive |
| QLKYVSGNIYRLVVWVRGSP | -0.926 ± 0.37 |
| QLQVSYYQRSGMFERFRLEW | 2.46 ± 0.18 |
| QLVLQVNRYVYRIMSTLTLS | 0.848 ± 0.52 |
| QNQVGIRGILHHMMNSLRTQ | 3.87 ± 0.055 |
| QPILSNLLNHLYTNILSSTL | -0.936 ± 0.64 |
| QPISVMSNLSEIIWTYSMRA | -0.002 ± 0.63 |
| QQMSIHRYADGVFELGIPVM | 0.11 ± 0.54 |
| QRHAVWGSSGDLTYELIGSL | inactive |
| QRIPWV | -0.509 ± 1.1 |
| QRLYFMIMSQPAFGTFRGIY | -0.95 ± 1.1 |
